B1: unnamed (parent)
chain: MPGFYEIVIKVPSDLDGHLPGISDSFVNWVAEKEWELPPDSDMDLNLIEQAPLTVAEKLQRDFLTEWRRVSKAPEALFFVQFEKGESYFHMHVLVETTGVKSMVLGRFLSQIREKLIQRIYRGIEPTLPNWFAVTKTRNGAGGGNKVVDESYIPNYLLPKTQPELQWAWTNMEQYLSACLNLTERKRLVAQHLTHVSQTQEQNKENQNPNSDAPVIRSKTSARYMELVGWLVDKGITSEKQWIQEDQASYISFNAASNSRSQIKAALDNAGKIMSLTKTAPDYLVGQQPVEDISSNRIYKILELNGYDPQYAASVFLGWATKKFGKRNTIWLFGPATTGKTNIAEAIAHTVPFYGCVNWTNENFPFNDCVDKMVIWWEEGKMTAKVVESAKAILGGSKVRVDQKCKSSAQIDPTPVIVTSNTNMCAVIDGNSTTFEHQQPLQDRMFKFELTRRLDHDFGKVTKQEVKDFFRWAKDHVVEVEHEFYVKKGGAKKRPAPSDADISEPKRVRESVAQPSTSDAEASINYADRLARGHSL

Drawing on paper PMC4944284, this text covers ratio to parent for two variants.

Variants of B1 are the subject of the assay. The assay is described as follows: sedimentation velocity (analytical ultracentrifugation), self-association. As to conditions: with partner chain of the complex shown; parent: 1; read off a plot.
In the case of MPGFYEIVIKVPSDLDGHLPGISDSFVNWVAEKEWELPPDSDMDLNLIEQAPLTVAEKLQRDFLTEWRRVSKAPEALFFVQFEKGESYFHMHVLVETTGVKSMVLGRFLSQIREKLIQRIYRGIEPTLPNWFAVTKTRNGAGGGNKVVDESYIPNYLLPKTQPELQWAWTNMEQYLSACLNLTERKRLVAQHLTHVSQTQEQNKENQNPNSDAPVIRSKTSARDMELVGWLVDKGITSEKQWIQEDQASYISFNAASNSRSQIKAALDNAGKIMSLTKTAPDYLVGQQPVEDISSNRIYKILELNGYDPQYAASVFLGWATKKFGKRNTIWLFGPATTGKTNIAEAIAHTVPFYGCVNWTNENFPFNDCVDKMVIWWEEGKMTAKVVESAKAILGGSKVRVDQKCKSSAQIDPTPVIVTSNTNMCAVIDGNSTTFEHQQPLQDRMFKFELTRRLDHDFGKVTKQEVKDFFRWAKDHVVEVEHEFYVKKGGAKKRPAPSDADISEPKRVRESVAQPSTSDAEASINYADRLARGHSL [chain 1 Y224D], the ratio to parent came to 0.1. The result for MPGFYEIVIKVPSDLDGHLPGISDSFVNWVAEKEWELPPDSDMDLNLIEQAPLTVAEKLQRDFLTEWRRVSKAPEALFFVQFEKGESYFHMHVLVETTGVKSMVLGRFLSQIREKLIQRIYRGIEPTLPNWFAVTKTRNGAGGGNKVVDESYIPNYLLPKTQPELQWAWTNMEQYLSACLNLTERKRLVAQHLTHVSQTQEQNKENQNPNSDAPVIRSKTSARFMELVGWLVDKGITSEKQWIQEDQASYISFNAASNSRSQIKAALDNAGKIMSLTKTAPDYLVGQQPVEDISSNRIYKILELNGYDPQYAASVFLGWATKKFGKRNTIWLFGPATTGKTNIAEAIAHTVPFYGCVNWTNENFPFNDCVDKMVIWWEEGKMTAKVVESAKAILGGSKVRVDQKCKSSAQIDPTPVIVTSNTNMCAVIDGNSTTFEHQQPLQDRMFKFELTRRLDHDFGKVTKQEVKDFFRWAKDHVVEVEHEFYVKKGGAKKRPAPSDADISEPKRVRESVAQPSTSDAEASINYADRLARGHSL [chain 1 Y224F] reads 0.69.
